# B1: BMPRII extracellular domain (ECD), wild type [human] / BMP10 growth factor (GF)-domain from Pro:BMP10 made in HEK EBNA cells [human] (parent complex)
# chain 1: SQNQERLCAFKDPYQQDLGIGESRISHENGTILCSKGSTCYGLWEKSKGDINLVKQGCWSHIGDPQECHYEECVVTTTPPSIQNGTYRFCCCSTDLCNVNFTENFPPPDTTPLSPPHSFNRDET
# chain 2: NAKGNYCKRTPLYIDFKEIGWDSWIIAPPGYEAYECRGVCNYPLAEHLTPTKHAIIQALVHLKNSQKASKACCVPTKLEPISILYLDKGVVTYKFKYEGMAVSECGCR
# Variants of: B1
# Assay: SPR (Biacore); BMP10 immobilised on a CM5 Biacore chip; parent: 0.161
row,koff,Variant
1,0.609 s⁻¹,chain 1 G63E
2,0.433 s⁻¹,chain 1 G63W
3,0.331 s⁻¹,chain 1 G63A
4,0.158 s⁻¹,chain 1 E72K
5,0.147 s⁻¹,chain 1 Q66H
6,0.0423 s⁻¹,chain 1 S81P

# Variants of: B1
# Assay: SPR (Biacore); BMP10 immobilised on a CM5 Biacore chip; parent: 1.35e+05
row,kon,Variant
1,3980 M⁻¹ s⁻¹,chain 1 G63E
2,1830 M⁻¹ s⁻¹,chain 1 G63W
3,104000 M⁻¹ s⁻¹,chain 1 G63A
4,148000 M⁻¹ s⁻¹,chain 1 E72K
5,120000 M⁻¹ s⁻¹,chain 1 Q66H
6,129000 M⁻¹ s⁻¹,chain 1 S81P

# Variants of: B1
# Assay: SPR (Biacore); BMP10 immobilised on a CM5 Biacore chip; parent: 1.19e+03 nM
row,Kd,Variant
1,153000 nM,chain 1 G63E
2,237000 nM,chain 1 G63W
3,3190 nM,chain 1 G63A
4,1070 nM,chain 1 E72K
5,1220 nM,chain 1 Q66H
6,328 nM,chain 1 S81P
